Article PMC8408865

Molecular target: C-terminal domain of Caenorhabditis elegans KCC-1, wild type, as used in solution (SEC, SEC/MALS) (C. elegans)
Test: SEC

Substance: C-terminal domain of Caenorhabditis elegans KCC-1, wild type, as used in solution (SEC, SEC/MALS) (domain or fragment)
- stoichiometry N: 2
